Measurements as given in the nanobody polyreactivity screen of Harvey et al. (2022).

experiment: yeast display, Sf9 membrane polyspecificity reagent, FACS + sequencing; frameworks hold sequencing errors
In short: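 In a synthetic yeast display library (Saccharomyces cerevisiae BJ5465), nanobody expression was induced with galactose for 36–48 hours. FACS gates were set low and high (top ~1%) using anti-HA fluorescence for expression and streptavidin fluorescence for binding of the Sf9 membrane reagent. Each polyreactivity label is drawn from the gate of origin.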

| Sequence | polyreactivity (PSR sort gate) |
| --- | --- |
| QVQLVETGGGLVQAGGSLRLSCAASGITFFRNAMGWYRQAPGKERELVAAISRGGGSTYYADSVKGRFTISRDNAKKTVYLQMNSLKPEDTAVYYCAEYKYGTGVKMDYWGQGTQVTVSS | high polyreactivity |
| QVQLVESGGGLVQAGGSLRLRGAASGFTFLYYAMGWYRQAPGKERELVAAITWSGDSTYYADSEKGRFTISRDYAMNTVYLQMNSLKPEDTAVYYCATGGVTFGSVVRGVDGDYWGQGTQVTVSS | low polyreactivity |
| QVQLVESGGGLVQAGGSLRLSCAASASTFWRYAMGWYRQAPGKERELVAAISWNGGSTYYADSVKGRFTISRDNAKNTVYLQMNSLKPEDTAVYYCARGYSWSVGYPRVQDMDYWGQGTQVTVSS | high polyreactivity |
| QVQLVESGGGLVQAGGSLRLSCAASGRIFKSYTMGWYRQAPGKERALVAGITWSGGSTYYADSVKGRFTISRDNAKNTVYLQMNSLKPDDTAVYYCATKTFYNYGFWGQGTQVTVSS | high polyreactivity |
| QVQLVESGGGLVQAGGSLRLSCAASGLTFYKNAMGWYSQAPGKERELVAAITQSGGSTYYADSVKGRFTISRDNAKNTVYLQMNSLKPEDTAVYYCAAATYLNGNNYYWGQGTQVTVSS | high polyreactivity |
| QVHLVESGGGLVQAGGSLRLSCAASGLIFGKNAMGWYRQPPGKERELVAAISSGESTYADSVKWRFTISRDNAKNTVYLQMNSLKPEDTAVYYCNAEVLRESYDRHPTTDYYWGQGTQVTVSS | low polyreactivity |
| QVQLVESGGGLVQAGGSLRLSCAASGYTFSDYAMGWYRQAPGKERELVAAISWSGGSTYYADSVKGRFTISRDNAKNTVYLQMNSLKPEDTAVYYCAAKWYAPDLLYYYWGQGTQVTVSS | low polyreactivity |
| QVQLVESGGGLVQAGGSLRLSCAASGSTFLKNAMGWYRQAPGKERELVAAISYSTTRTYYADSVKGRFTISRDNAKNTVYLQMNSLKPEDTAVYSCNARWQEPLKYDYWGQGTQVTVSS | low polyreactivity |
| QVQLVESGGGLVQAGGSLRLICAASGRILDIYALGWYRQAPGKERELVASISGSGSSTYYADSVKGRVTISRDNAKNTVYLQMNSLKPEDSAVYYCNAARSQGYEYATYGYWGQGSQVTVSS | low polyreactivity |
| QVQLVESGGGLVQAGGSLRLSCAASGRIIYRNAMGWSRQSPGKEREMVATITKNGGATYYADSVKGRFTISRDNAKNTVYLQMNTLKPEDTAVYYCATGSRGYKASPQWRDYWGQGTQVTVSS | high polyreactivity |
| QVQLVESVGGLVQAGGSLRLSCAASGSTFRINAMGWYRQAPGKEMELVADINSGGNTTYADSVKGRFTISRDNAKNTVYLQMNSLKPEDTAVYYCAAEPVFDLWEFLLDYGYDYWGQGTQVTLSS | low polyreactivity |
| QVQLVESGGGLVQAGGSLRLSCAASGFTFNYYAMGWYRQAPGKERELVAAITSSGGSTYYADSVKGRFTISRDNAKNTVYLQMNSLKPEDTAVYYCNAAVYAHRYIYGFDYWGQGTQVTVSS | high polyreactivity |
| EEELVESGGGLVQAGCSLRLSCAATGSTIIWNAMGWYIQAPGKERELVAAITRSGGRTYYADSVKGRFTISRDNAKNTVYLLMNSLIPEDTAVYYCAAVIWGYYYGGKYVYYYPYGYWGQGTQVTVSS | high polyreactivity |
| QVQLVESGGGLVQAGGSLRLSCAASGRTFAVYAMGWYRQAPGKERELVAAITYGGGRTSYADSVKGRFTISRDYAKNTVYFQMKRLKPEDTAVYSCAADYYGTDYDYWGQGTQVTVSS | low polyreactivity |
| QVQLVESWGGLVQAGASLRLSCAASGRILPYYAMGWYRQAPGKERELVATISSGGRTNYADSVKGRFTISRDNAKITVYLQMNSLKPEDTEVYFCNKYGFKGGVGYDYWGQGTQVTVSS | high polyreactivity |
| QVQLVESGGGLVQAGGSLRLSCAASGFIFYYYAMGWYRQAPGKERELVAAITQGGGSTYYADSVKGRFTISRDNAKNTVFLQMNSLKPEDTAVYYCAAVKRVYAHSRAFSSDFYYWGQGTQVTVSS | high polyreactivity |
| QVQLVESGGGLVQAGGSLRLSCAASGITSPYAMGWYRQAPGKERELVAAISWSGSSTYYADSVKGRFTISRDNAKYTVYLQMNSLNPEDTAVYYCATLVSASRSRRFGYEYWGQGSQVTVSS | high polyreactivity |
| QVQLVESIGGLVQAGGSLRLSCAASGSIFQPYAMRWYRQAPGKERELVAAITTSGGRTYYADSVKGRFTMSRDNAKNTVYLQMNSLKPEDTAVYYCAADWGIGDYDYWGQGTQVTVSS | high polyreactivity |
| QVQLVESGGGLVQAGGSLRLSCAASGSIFPTNAMGWYRQAPGKERELVAAITGNGGRTYYADSVKGRFTISRDNAKNTVYLQMNSLKPEDTAVYYCAALTYASNRYGYWGQGTQVTVSS | high polyreactivity |
| QVQLVASGGGLVQAGGSLRLSCAASGYTLFRNAMGWYRQAPGKERELVAAISRSGARTYYADSVKGRFTISRDNAKNTVYLQMNSLLPEDTAVYYCAAVIKWTKDDYWGQGTQVTVSS | high polyreactivity |
| QVQLVESGGGLVQAGGSLRLSCAASGLIFYYYAMGWYRQAPGKERELVADIDRGGDTYYADSVKGRFTISRDNAKNTVYLQMNSLKPEDTAVYYGAAVDFYGYVPEFGYWGQGTQVTVSS | low polyreactivity |
| QVQLVESGGGLVQAGGSLRLICAASGFIFWDNAMGWYRQAPGKERELVAAISKSGTRTYYADSVKGRFTISRDNEKNTVYLQMNSLKPEDTAVYYCAAEGSGYEYYYWGQGTQVTVSS | high polyreactivity |

| Sequence | polyreactivity (PSR sort gate) |
| --- | --- |
| QVQLVESGGGLVLAGGSLRLSCAASGSIFGGYAMGWYRPAPGKERELVAAISSGDSTYYADSVKGRFTISRDNAKNTVYLQINSLKPEDTAVYYCAAAFFARDRKRYNYWGQGTQVTVSS | high polyreactivity |
| QVQLVESGGGLVKAGGSLSLSCAASGFIFVNNVMGWYRQAPGKERELVAAISRRGGSTYYADSVKGRFTISRDNAKNTVYLQMNSLKPEDTAVYYCARRGPDFSWKYDYWGQGTQVTVSS | high polyreactivity |
| QVQLVESGGGLVQAGGSLRLSCAASGFTFRRYAMGWYRPARGKERELVAAIRQSGGSTYADSVKGRFTISRDNAKNTVYLQMNSLKPEDTAVYYCNAGVRAVNRKYDYWGQGTQVTVSS | high polyreactivity |
| QVQLVESGGGLVQAGGSLRLSCAASGRIFETNAMGWYRQAPGKERELVAVITRGGSTYYADSVKGSFTISRDNAKNTVYLQMNSLKPEVTALYYCNVRRLYGYGYYYWGQGTQVTVSW | low polyreactivity |
| QVQLVESGGGLVQAGGSLRLSCAASGSIFKRYAMGWDRQAPGKERELVASISSRGSSTNYADSVKGRFTISRDNAKNTVYLQMNSLKPEDTAVYYCAAEVYRGKYWSTYRGGDYWGQGTQVTVSS | high polyreactivity |
| QVQLVESGGGLVQAGGSLRLSCAASGRTYRYNAMGWYRQAPGKERELVATITRTGSTDYADSVKGRFTISRDNAKNTVYLQMNSLKPEDTAVYYCNARGVYSGRTYYYIYDYWGQGTQVTVSS | high polyreactivity |
| QVQLVESGGGLVQAGGSLRLSCAASGSTFVYNAMGWYRPAPGKERELVAAISARTGRTYYADSVKGRFTISRDNAKNTVYLQMNSLKPEDTAVYYCAAGLIVGRFLRYDYWGQGTQVTVSS | high polyreactivity |
| QVQHVESGGGLVQAGGSLRLSCAASGSTFRTYGMGWYRQAPGKERELVAGITRGGSTTYADSVKGRFTISRDNAKNTVYLQMNSLKPEDTAVYYCNAGYVRVRAHNYDYWGQGTQVTVSS | high polyreactivity |
| QVQLVESGGGLVQAGGSLRLSCAASGSILKPYAMGWYRQAPGKERELVARISSSGGRTYYADSVKGRFTISRDNAKNTFYFKMNSLKPEDTAVYYFAAAIVSYGRNDYWGQGTQVTVSS | high polyreactivity |
| QVQLVESGGGLVQAGGSLRLSCAASGIIFDHYAMGWYRKAPGKERELVAAITSGGRTYYADSVKGRFTISRDNAKKTVYLQMNSLKPEDTAVYYCNARFRSSARLAYYYWGQGTQVTVSS | high polyreactivity |
| QGQHVETGGGLVQAGGRLRLSCAASGSTLRDYVMGWSRQAPGKERELVAAITSRVDDTYYADSVKGRFTISRDNAKNTVYLQMNSLKPEDTAVYYCAADSSVTLRIGGYYWFYAFDYWGQGTQVTVSS | low polyreactivity |
| QVQLVESGGGLVQAGGSLRLSCAASGRIFDRYALGWYRQAPGTERELVAVISQSGGRTYYADSVKGRFTISRDNAKNTVYLEMNSLKPEDSAVYYCNKRYRNRYSYSEGDYWGQGTQVTVSS | high polyreactivity |
| QDQLVESGGGLVQAGGSLRLSCAASGFIFIPNAMGWYRQAPRKERELVAAISFSDGTTYYADSVKGRFTISRDYEKNTVYLQMNSLKPEDTAVYYCAAEGYQSQYDYWGQGTQVTVSS | high polyreactivity |
| QVHLVESGGGLVQAGGSLRLSCAASGLIFFKYAMGWYRQETGKESELVAANSSSGGRTSYADSVKGRFTISRDNAKNTVYLQMNSEKPEDTAVYYCNVKPSASYIRYNYRYYYWGQGTHVTVSS | high polyreactivity |
| QVQLVESGGGLVHAGCSLRLSCAAYGRNFYRYAMGWYRQAPGKERALVAAISGSVGSTYADTEKGRFTSSRDNAKNTVYLQMNSLKPEDTAVYYCARESYRRYGAYDYWGQGTQVTESS | low polyreactivity |
| QVQLVESGGGLVQAGGSLRLSCAASGFIFGLYAMGWYRQAPGKERELVAAISSGGSTYYADSVKGRFTISRDNAKNTVYLQMNSLKPEDTAVYYCAAYYVYSEYDYWGQGTQVTVSS | high polyreactivity |
| QVQLVESGGGLVQAGGSLRLSCAASGLTFEGNAMGWYRQAPGKERELVAAISRRGGSTYYADSVKGRFTISRHNAKNTVYLQMNSLKPEDSAVYYCAADRQPYTDKYDYWGQGTQVTVSS | high polyreactivity |
| QVQLVESGGGLVQAGGSLRLSCAASGRTFRKYAMGWYRQAPGKERELVAALSWYGGSTYYANSVKGRFTISRDNAKNTVYLQMNSLKPEDTAVYYCAAVPVHTGSLYWGFTTCYDYWGQGTQVTVSS | low polyreactivity |
| QVQLVESGGGLFQAGGSLRLSCAASGFISSGNTMAWYRQAPGKERELVAAISGSGGRTYYADSVKGRFTISRDNAKNTVYLQMNSLKPEDTAVYYCATPLQQLYGYWGQGTQVTVSS | low polyreactivity |
| QVQLVESGGGLVQAGGSLRLSCAASGSIFGFYAMGWYRQAPGKERELVASISSSGDSTYYADSVKGRFTISRDNAKNTVYLQMNSLKPEDTAVYYCAAVVYDIYGYEFDYWGQGTQVTVSS | low polyreactivity |
| QVQLVESGGGLVQAGGSLRLSCAASGSIFRQYAMGLSRQAPGKERELVAAITYSGGNTYYADSVKGRFTISRDNAKNPVYLQLNSLKPEDTAVYYCAADYGSRSWEYTYWGQGTQVTVSS | low polyreactivity |
